According to patent US20210047372A1 (Affibody, published 2021):
Where a chain is given by its changes, count along the chain named. Names may count otherwise.

B1: Y00263 (designed binder)
chain: MGSSHHHHHHGSSLAEAKEAAIAELKSKGVGAYQKSFIELAKSVEHVELLKEAILADLP
notes: Y00032 with D13K
B2: Y00264 (designed binder)
chain: B1 chain with K26D, K28Y
notes: Y00032 with K15Y
B3: Y00274 (designed binder)
chain: B1 chain with K26D, E48Q
notes: Y00032 with E35Q
B4: Y00271 (designed binder)
chain: B1 chain with K26D, E39Q
notes: Y00032 with E26Q
B5: Y00296 (designed binder)
chain: B1 chain with K26D, K35I, S36K, E39Q, E48Q, E52Q
notes: Y00293 with E26Q
B6: Y00267 (designed binder)
chain: B1 chain with K26D, A32E
notes: Y00032 with A19E
B7: Y00269 (designed binder)
chain: B1 chain with K26D, S36K
notes: Y00032 with S23K
B8: Y00275 (designed binder)
chain: B1 chain with K26D, E52Q
notes: Y00032 with E39Q
B9: Y00273 (designed binder)
chain: B1 chain with K26D, E45Q
notes: Y00032 with E32Q
B10: Y00268 (designed binder)
chain: B1 chain with K26D, K35I
notes: Y00032 with K22I
B11: Y00272 (designed binder)
chain: B1 chain with K26D, A41G
notes: Y00032 with A28G
B12: Y00276 (designed binder)
chain: B1 chain with K26D, A56K
notes: Y00032 with A43K
B13: Y00265 (designed binder)
chain: B1 chain with K26D, V30I
notes: Y00032 with V17I
B14: Y00266 (designed binder)
chain: B1 chain with K26D, G31S
notes: Y00032 with G18S
B15: Y00296a (designed binder)
chain: MGSSHHHHHHGSSLAEAKEAAIAELDSKGVGAYQIKFIQLAKSVEHVQLLKQAILADLPASYGS
notes: if it is only 46 residues long, ASYGS must be added at the C-terminus
B16: Y00330 (designed binder)
chain: MGSSHHHHHHGSSLAEAKEAAIAELDSKGVGAKYIKMIQMAKHVETVQYMKQAILASLPA
notes: From library Ylib002Naive.I
B17: Y00356a (designed binder)
chain: B16 chain with M40H, K42H, H43Y, T46V, Y49W, M50L, S57H
notes: From library Ylib002Naive.I; if it is only 46 residues long, an A must be added at the C-terminus
B18: Y00361 (designed binder)
chain: B16 chain with Y34F, M40S, H43L, Y49L, M50L, S57D
notes: From library Ylib002Naive.I
B19: Y00296C (designed binder)
chain: MGSSHHHHHHTIDEWLLAEAKEAAIAELDSKGVGAYQIKFIQLAKSVEHVQLLKQAILADLP
notes: if it is only 46 residues long, TIDEWL must be put before it
B20: Y00035 (designed binder)
chain: MGSSHHHHHHGSSLAEAKEAANAELDSYGVQANSIEAIEQGLFVEVVELLKELILAALPASGSVD
notes: From library Ylib001Naive.I
B21: Y02444 (designed binder)
chain: MGSSHHHHHHGSSLAEAKEAAIAELDSKGVGAVEIKQIQEALLVEIVQLLKQAILAVLPA
notes: From library Ylib002Naive.I; also called Y002444
B22: Y02465 (designed binder)
chain: B21 chain with V33N, E34H, Q37A, E40H, L42Q, L43F
notes: From library Ylib002Naive.I
B23: Y02699 (designed binder)
chain: B21 chain with Q39E
notes: Y02444 with Q26E
B24: Y02374 (designed binder)
chain: B21 chain with V33A, Q37R, E40A, L42E
notes: From library Ylib002Naive.I
B25: Y02698 (designed binder)
chain: B21 chain with K28Y
notes: Y02444 with K15Y
B26: Y02415 (designed binder)
chain: B21 chain with V33G, E34D, Q37D, E40D
notes: From library Ylib002Naive.I
B27: Y02447 (designed binder)
chain: B21 chain with V33H, E34G, Q37E, E40D, L42I, V57A
notes: From library Ylib002Naive.I
B28: Y02700 (designed binder)
chain: B21 chain with I22L, V33G, E34D, Q37D, E40D
notes: Y02415 with I9L
B29: Y02495 (designed binder)
chain: B21 chain with V33E, Q37E, E40G, L42M
notes: From library Ylib002Naive.I
B30: Y02697 (designed binder)
chain: B21 chain with I22L
notes: Y02444 with I9L
B31: Y00032 (designed binder)
chain: MGSSHHHHHHGSSLAEAKEAAIAELDSKGVGAYQKSFIELAKSVEHVELLKEAILADLPASGSVD
B32: Y00125 (designed binder)
chain: B31 chain with I22N
notes: Differs from Y00032 only in position 9 (N instead of I)
B33: Y00299 (designed binder)
chain: MGSSHHHHHHGSSLAEAKEAAIAELDSKGVGAYQIKFIQVAKTVEQVQILKQAILADLPA
notes: From library Ylib002Naive.I
B34: Y00358 (designed binder)
chain: MGSSHHHHHHGSSLAEAKEAAIAELDSKGVGAAKIKWIQDAKSVETVQFLKQAILAELPA
notes: From library Ylib002Naive.I
B35: Y02715 (designed binder)
chain: B34 chain with K28Y, Q39E
notes: Y00358 with K15Y + Q26E
B36: Y02710 (designed binder)
chain: B34 chain with K28Y
notes: Y00358 with K15Y
B37: Y02713 (designed binder)
chain: B33 chain with K28Y, V40I, K42H, Q46E, I49L, L50M
notes: Y00310 with K15Y
B38: Y02716 (designed binder)
chain: MGSSHHHHHHGSSLAEAKEAAIAELDSYGVGARQIKWIEQAKSVEVVQWLKQAILADLPA
notes: Y00301 with K15Y + Q26E
B39: Y02709 (designed binder)
chain: B34 chain with I22L
notes: Y00358 with I9L
B40: Y02711 (designed binder)
chain: B34 chain with Q39E
notes: Y00358 with Q26E
B41: Y00304 (designed binder)
chain: B33 chain with K42H, T43D, Q46E
notes: From library Ylib002Naive.I
B42: Y00345 (designed binder)
chain: B33 chain with Q46A, I49A, L50I
notes: From library Ylib002Naive.I
B43: Y02717 (designed binder)
chain: B33 chain with K28Y, Q39E, V40I, K42H, Q46E, I49L, L50M
notes: Y00310 with K15Y + Q26E
B44: Y02714 (designed binder)
chain: B33 chain with Q39E, V40I, K42H, Q46E, I49L, L50M
notes: Y00310 with Q26E
B45: Y00310 (designed binder)
chain: B33 chain with V40I, K42H, Q46E, I49L, L50M
notes: From library Ylib002Naive.I
B46: Y00296b (designed binder)
chain: MGSSHHHHHHGSSLAEAKEAAIAELDSKGVGAYQIKFIQLAKSVEHVQLLKQAILADLPGYS
notes: if it is only 46 residues long, GYS must be added

Legend:
insulin = molecular target: T1, insulin (UniProt P01308 25-54; P01308 90-110, limits assumed); assay: SPR, Biacore T200; target immobilized on CM5, His6-tagged Y variant injected; 1:1 Langmuir
T1 construct: Mature insulin has two chains (A and B) from one precursor; also called b-insulin
Method: (§1) Kinetic constants (kₐ and kd) and affinities (KD) were determined for Hiss-tagged Y variants using a Biacore T200 instrument (GE Healthcare). Target proteins C4, IL-6 and insulin, respectively, were immobilized in separate flow cells on the carboxylated dextran layer of different CM5 chip surfaces (GE Healthcare).
(§2) Immobilization was performed using amine coupling chemistry according to the manufacturer's protocol and PBS pH 7.4 supplemented with 0.1 Tween20 (PBST 0.1%) as running buffer. The ligand immobilization levels on the surfaces were 3280-8830 RU for C4, 495-1184 RU for IL-6, and 270-282 RU for insulin. One flow cell surface on each chip was activated and deactivated for use as blank during analyte injections. In the kinetic experiment, PBST 0.1% was used as running buffer at a flow rate of 30 μl/min. The analytes, i.e. Y variants, were each diluted in PBST 0.1 buffer at concentrations of 1000, 500, 100, 50 and 10 nM and injected for 5 min, followed by dissociation in running buffer for 3 min. After dissociation, the surfaces were regenerated with one injection of 30 μl 10 mM HCl. Kinetic constants were calculated from the sensorgrams using the Langmuir 1:1 model of Biacore T200 Evaluation software 2.0 (GE Healthcare).

interleukin 6 (IL-6) = molecular target: T2, interleukin 6 (IL-6) (UniProt P05231 30-212); assay: as above
T2 construct: also called b-IL-6
Method: as §1, §2

T1 sequence (P01308 25-54 limits assumed, form in doubt, chain 1 of 2): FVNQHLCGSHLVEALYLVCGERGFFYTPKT
T1 sequence (P01308 90-110 limits assumed, form in doubt, chain 2 of 2): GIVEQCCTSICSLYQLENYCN

Binder | Kd (insulin) | koff (insulin) | kon (insulin) | Kd (interleukin 6 (IL-6)) | koff (interleukin 6 (IL-6)) | kon (interleukin 6 (IL-6))
B1 | 130 nM | – | – | – | – | –
B2 | 64 nM | – | – | – | – | –
B3 | 56 nM | – | – | – | – | –
B4 | 47 nM | – | – | – | – | –
B5 | 37 nM | – | – | – | – | –
B6 | 59 nM | – | – | – | – | –
B7 | 390 nM | – | – | – | – | –
B8 | 59 nM | – | – | – | – | –
B9 | 77 nM | – | – | – | – | –
B10 | 84 nM | – | – | – | – | –
B11 | 110 nM | – | – | – | – | –
B12 | 76 nM | – | – | – | – | –
B13 | 120 nM | – | – | – | – | –
B14 | 56 nM | – | – | – | – | –
B15 | 22 nM | – | – | – | – | –
B16 | 120 nM | 0.0037 s⁻¹ | 30000 M⁻¹ s⁻¹ | – | – | –
B17 | 0.17 nM | 0.0061 s⁻¹ | 3.4e+07 M⁻¹ s⁻¹ | – | – | –
B18 | 310 nM | 0.0036 s⁻¹ | 12000 M⁻¹ s⁻¹ | – | – | –
B19 | 51 nM | – | – | – | – | –
B20 | – | – | – | 360 nM | – | –
B21 | – | – | – | 61 nM | 0.0055 s⁻¹ | 90000 M⁻¹ s⁻¹
B22 | – | – | – | 270 nM | 0.0021 s⁻¹ | 7500 M⁻¹ s⁻¹
B23 | – | – | – | 200 nM | 0.0029 s⁻¹ | 19000 M⁻¹ s⁻¹

Binder | Kd (insulin) | koff (insulin) | kon (insulin) | Kd (interleukin 6 (IL-6)) | koff (interleukin 6 (IL-6)) | kon (interleukin 6 (IL-6))
B24 | – | – | – | 120 nM | 0.0017 s⁻¹ | 14000 M⁻¹ s⁻¹
B25 | – | – | – | 120 nM | 0.0033 s⁻¹ | 28000 M⁻¹ s⁻¹
B26 | – | – | – | 160 nM | 0.0015 s⁻¹ | 9700 M⁻¹ s⁻¹
B27 | – | – | – | 160 nM | 0.0017 s⁻¹ | 11000 M⁻¹ s⁻¹
B28 | – | – | – | 62 nM | 0.0025 s⁻¹ | 46000 M⁻¹ s⁻¹
B29 | – | – | – | 240 nM | 0.0017 s⁻¹ | 7100 M⁻¹ s⁻¹
B30 | – | – | – | 150 nM | 0.009 s⁻¹ | 50000 M⁻¹ s⁻¹
B31 | 50 nM | – | – | – | – | –
B32 | 110 nM | – | – | – | – | –
B33 | 6.5 nM | 0.002 s⁻¹ | 310000 M⁻¹ s⁻¹ | – | – | –
B34 | 10 nM | 0.0023 s⁻¹ | 220000 M⁻¹ s⁻¹ | – | – | –
B35 | 280 nM | 0.0019 s⁻¹ | 6700 M⁻¹ s⁻¹ | – | – | –
B36 | 14 nM | 0.0027 s⁻¹ | 190000 M⁻¹ s⁻¹ | – | – | –
B37 | 190 nM | 0.014 s⁻¹ | 110000 M⁻¹ s⁻¹ | – | – | –
B38 | 7.6 nM | 0.21 s⁻¹ | 2.7e+07 M⁻¹ s⁻¹ | – | – | –
B39 | 380 nM | 0.01 s⁻¹ | 27000 M⁻¹ s⁻¹ | – | – | –
B40 | 54 nM | 0.008 s⁻¹ | 150000 M⁻¹ s⁻¹ | – | – | –
B41 | 21 nM | 0.0011 s⁻¹ | 85000 M⁻¹ s⁻¹ | – | – | –
B42 | 61 nM | 0.017 s⁻¹ | 290000 M⁻¹ s⁻¹ | – | – | –
B43 | 610 nM | 0.02 s⁻¹ | 33000 M⁻¹ s⁻¹ | – | – | –
B44 | 540 nM | 0.16 s⁻¹ | 290000 M⁻¹ s⁻¹ | – | – | –
B45 | 37 nM | 0.0063 s⁻¹ | 170000 M⁻¹ s⁻¹ | – | – | –
B46 | 31 nM | – | – | – | – | –
